Columns and labels:
TDP-43 [1] = target: T1, TDP-43 (Homo sapiens, UniProt Q13148); assay: Cleavage of TDP-43 protein in brain homogenate of ALS model (SOD1-G93A) mice (Western blot); assay type: biochemical; details: SOD1-G93A mouse brain homogenate + recombinant TDP-43, 37° C. 3 h, vs vehicle control group
T1 construct: purchased Nanjing GenScript Biotechnology Co., Ltd. C134WHE160-2/P5HF001
Experimental: Four B6.Cg-Tg (SOD1-G93A) 1Gur/J transgenic male mice (referred to as SOD1-G93A transgenic mice) were sacrificed, and the whole brain was taken out to weigh. 1×PBS was added at 150 mg tissue/mL PBS (Thermo Fisher, pH 7.4; 10010-031) to homogenize at 4° C. (1 min, 3-4 times). After homogenization, the supernatant, i.e., the brain homogenate was taken out to place in a new EP tube.
Eppendorf (EP) tubes were set as: (1) blank group, (2) blank control group, (3) vehicle control group, and (4) plasminogen group, with 5 parallels in each group. The blank group was added with 21.5 μL of normal saline, 4.6 μL of vehicle solution (10 mM sodium citrate, 2% arginine hydrochloride, 3% mannitol, pH 7.4), and 23.9 μL of mouse brain homogenate; the blank control group was added with 21.5 μL of normal saline, 2.3 μL of plasminogen solution (2 mg/mL), and 23.9 μL of mouse brain homogenate; the vehicle control group was added with 20.5 μL of TDP-43 (Nanjing GenScript Biotechnology Co., Ltd., custom-expressed human TDP-43, C134WHE160-2/P5HF001, 1.05 mg/mL), 4.6 μL of vehicle solution, and 23.9 μL of mouse brain homogenate; the plasminogen group was added with 20.5 μL of TDP-43 (1.05 mg/mL), 2.3 μL of plasminogen solution (2 mg/mL), and 23.9 μL of mouse brain homogenate. After adding the samples of each group, they were incubated at 37° C. for 3 h, and then 50 μL of 0.1% trifluoroacetic acid solution was added to terminate the reaction.
A 12% gel was prepared according to the SDS-PAGE gel preparation instructions. Each group of samples was mixed with 4× loading buffer (TaKaRa, e2139) at a volume ratio of 3:1, heating at 100° C. for 5 min, cooling and centrifuging for 2 min, and then 20 μL was taken for sample loading. […] After washing 4 times with TBST, the PVDF membrane was placed on a clean imaging plate, Immobilon Western HRP Substrate (MILLIPORE, WBKLS0100) was added for color development, and the membrane was photographed under a biomolecular imager, then performing quantitative analysis by using Image J.

TDP-43 [2] = assay: TDP-43 in brain tissue of mice injected with TDP-43 in the brain and LPS (Western blot); assay type: in vivo; details: C57BL/6J mice, hippocampal TDP-43 injection + LPS, 50 mg/kg tail vein for 3 days, vs vehicle group, P<0.05
Experimental: Nine C57BL/6J female mice aged 6-7 weeks were selected and weighed before modeling. After weighing, all mice were randomly divided into two groups: 3 mice in blank control group, and 6 mice in model group. After grouping, mice in the sham operation group and model group were anesthetized with intraperitoneal injection of tribromoethanol at a dose of 20 mL/kg. Model mice were located in the hippocampus according to the mouse stereotaxic atlas (based on the coordinates of the bregma: AP-2.54 mm, ML±2 mm, DV-2.4 mm), and each mouse was slowly microinjected bilaterally. Mice in the sham operation group were only drilled at the coordinate location point without injection. The mice in the model group were injected with TDP-43 solution at an injection rate of 0.5 μL/min and an injection volume of 3 μL/side. After the injection, the syringe stayed for 5 minutes and then slowly withdrew. Three days after the brain localization injection, all mice were weighed, and the mice in the model group were intraperitoneally injected with 5 mg/kg LPS solution according to their body weight. Then the mice in the model group were randomly divided into two groups: 3 mice in the plasminogen group and 3 mice in the vehicle group. […] The vehicle and plasminogen were administered continuously for 3 days. […] After homogenization, TDP-43 was detected by western blot.

T1 sequence (Q13148 whole entry): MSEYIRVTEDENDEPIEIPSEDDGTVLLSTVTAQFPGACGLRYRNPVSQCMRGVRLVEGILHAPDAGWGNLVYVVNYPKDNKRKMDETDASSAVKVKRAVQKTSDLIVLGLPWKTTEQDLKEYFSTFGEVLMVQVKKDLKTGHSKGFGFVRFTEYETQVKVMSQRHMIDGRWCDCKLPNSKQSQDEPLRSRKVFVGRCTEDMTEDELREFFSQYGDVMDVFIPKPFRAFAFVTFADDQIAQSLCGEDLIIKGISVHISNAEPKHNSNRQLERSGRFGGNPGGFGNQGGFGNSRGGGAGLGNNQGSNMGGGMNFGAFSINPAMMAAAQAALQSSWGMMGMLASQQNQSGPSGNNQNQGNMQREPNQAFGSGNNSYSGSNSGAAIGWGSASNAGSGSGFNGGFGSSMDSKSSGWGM

B1: plasminogen: human plasminogen purified from human donor plasma, in which human Lys-plasminogen and Glu-plasminogen are >98% (protein)
chain: KVYLSECKTGNGKNYRGTMSKTKNGITCQKWSSTSPHRPRFSPATHPSEGLEENYCRNPDNDPQGPWCYTTDPEKRYDYCDILECEEECMHCSGENYDGKISKTMSGLECQAWDSQSPHAHGYIPSKFPNKNLKKNYCRNPDRELRPWCFTTDPNKRWELCDIPRCTTPPPSSGPTYQCLKGTGENYRGNVAVTVSGHTCQHWSAQTPHTHNRTPENFPCKNLDENYCRNPDGKRAPWCHTTNSQVRWEYCKIPSCDSSPVSTEQLAPTAPPELTPVVQDCYHGDGQSYRGTSSTTTTGKKCQSWSSMTPHRHQKTPENYPNAGLTMNYCRNPDADKGPWCFTTDPSVRWEYCNLKKCSGTEASVVAPPPVVLLPDVETPSEEDCMFGNGKGYRGKRATTVTGTPCQDWAAQEPHRHSIFTPETNPRAGLEKNYCRNPDGDVGGPWCYTTNPRKLYDYCDVPQCAAPSFDCGKPQVEPKKCPGRVVGGCVAHPHSWPWQVSLRTRFGMHFCGGTLISPEWVLTAAHCLEKSPRPSSYKVILGAHQEVNLEPHVQEIEVSRLFLEPTRKDIALLKLSSPAVITDKVIPACLPSPNYVVADRTECFITGWGETQGTFGAGLLKEAQLPVIENKVCNRYEFLNGRVQSTELCAGHLAGGTDSCQGDSGGPLVCFEKDKYILQGVTSWGLGCARPNKPGVYVRVSRFVTWIEGVMRNN
significantly lower: amount of TDP-43 monomer (TDP-43 [1]) | amount of high molecular weight TDP-43 protein (HMW) (TDP-43 [1]) | amount of low molecular weight TDP-43 fragment (LMW) (TDP-43 [1]) | amount of TDP-43 monomer in brain tissue (TDP-43 [2]) | amount of low molecular weight TDP-43 in brain tissue (TDP-43 [2])
